Assay results as given in the RNAGym collection of RNA variant scans (doi:10.1073/pnas.2313332121).
This sample holds only a part of the variants without activity.

B1: TPR 5TU (parent)
chain: GGAUCUUCUCGAUCUAACAAAAAAGACAAAUCUGCCACAAAGCUUGAGAGCAUCUUCGGAUGCAGAGGCGGCAGCCUUCGGUGGCGCGAUAGCGCCAACGUUCUCAACUAUGACACGCAAAACGCGUGCUCCGUUGAAUGGAGUUUAUCAUG

Variants of: B1
Test: polymerase ribozyme fitness, log enrichment relative to wild type (log ratio); higher = more active; in vitro selection for triplet polymerase activity
In short: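 Each subunit of a heterodimeric triplet polymerase ribozyme was represented by a PCR-built, transcribed mutant library that underwent triplicate single-round in vitro selection with frozen incubation at −7 °C. Extended constructs were recovered by gel excision, streptavidin-bead capture and RT-PCR, and Illumina sequencing of input and output libraries kept genotypes with ≥10 input reads and ≥1 read per output. Fitness is the logarithm of genotype enrichment relative to wild-type enrichment, from inverse-variance-weighted replicate averages, with a logarithm base of 2.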

Row | Variant | polymerase ribozyme fitness (log ratio)
1 | C27U A40U G59U A107G C116A | ≤ -4.2
2 | A28G A106G U134G | ≤ -4.2
3 | C27G G67C C85A | ≤ -4.2
4 | A28U C54A G92U C118U G124U C131A A137U | ≤ -4.2
5 | C27U C72U G88A G94A G152A | -4.19
6 | A28C G84U G88C A91G G124U | ≤ -4.2
7 | A28C A47C G62C C108G A122C | ≤ -4.2
8 | C27U C35U U53A U56G C57A C93A A113C A122G U146A C149G | ≤ -4.2
9 | C27A G50A C54U C95A | ≤ -4.2
10 | C27U G34U C93U G112C U148G | ≤ -4.2
11 | A28C A40U U53A G84U A115U | ≤ -4.2
12 | A28G C38A C54G G88C C103A | ≤ -4.2
13 | A28U A40C C75U G83U G133A | ≤ -4.2
14 | A28C U56A C72U C76G | ≤ -4.2
15 | C27U G83A C125U U130G U135G | ≤ -4.2
16 | C27G C54A | -3.98
17 | A28U G67A G74A G86C C108A C132A | ≤ -4.2
18 | C27G A30G A39U C87A | ≤ -4.2
19 | C27G U56G | ≤ -4.2
20 | A28U G67C U77A U90C C95U C105U A142G | ≤ -4.2
21 | C27U C54U G58A A106G | -0.532
22 | C27G A52C U53A A64G C69A U78A C79A C87G G94C C95A A142C | ≤ -4.2
23 | C27U C93U | -3.3
24 | A28C A49U U56A G65A G70C A91U G94C G117C U151A | ≤ -4.2

Row | Variant | polymerase ribozyme fitness (log ratio)
25 | A28U C35U A91U C132U | -3.89
26 | C27G A28U G50U C87G G140C | -3.94
27 | C27U G58A G59C C99U U102G A120C C125U | ≤ -4.2
28 | A28U G48C C54U G74U U77A G86U A98U C103G | ≤ -4.2
29 | C27U A47U A49C G117A | ≤ -4.2
30 | C27U U56A G84U G86C C114G U145A | ≤ -4.2
31 | C27G A39G G83A G143U | ≤ -4.2
32 | C27U G50C C87A C105G | ≤ -4.2
33 | C27G G141U | -4.04
34 | A28G G84U | -4.02
35 | C27A G50U C57U A60C C116G U146G A147C | ≤ -4.2
36 | A28G U33G G34U G59C U104G C118U | ≤ -4.2
37 | A28U G58C C96A A97G U144A U145G | ≤ -4.2
38 | C27U C118U | -1.44
39 | A28G C38U U61A G67U C85G A98G | -3.98
40 | A28C U144G | -4.03
41 | C27U G42A G67U C69A G117A A150C | ≤ -4.2
42 | C27G C105A C114A A119G | ≤ -4.2
43 | C27U A39U U53A C93U | ≤ -4.2
44 | C27U A28U C76U U78G C93G A119G | ≤ -4.2
45 | C27G C76A | -3.63
46 | C27U C76U G83A | -1.55
47 | A28U A29G C32U C57G | ≤ -4.2
48 | A28U G59U G74U C85G A113U C114A U127A | ≤ -4.2

Row | Variant | polymerase ribozyme fitness (log ratio)
49 | A28C C57U G84A C96U G124U | ≤ -4.2
50 | A28C A39C C54G U61A C99U | ≤ -4.2
51 | C27U C85A A91U G143A | ≤ -4.2
52 | C27U A120G C125A | -1.81
53 | C27U A28U U53G C93A | ≤ -4.2
54 | A28U A37C U139C U151G | ≤ -4.2
55 | C27A U44A C85A A107C U148C | ≤ -4.2
56 | C27U U55A C99G A138G | ≤ -4.2
57 | A28U C95A | -3.41
58 | C27U U44A G46A C54A C116G A147U | ≤ -4.2
59 | A28C A39U G48C G70A G84C C93G G140U | ≤ -4.2
60 | C27G C57U A91U C95A C131G U134G G140A | ≤ -4.2
61 | A28C U33G U77C U90G C93A U148C G152A | ≤ -4.2
62 | A28C G58C | ≤ -4.2
63 | C27U A60U | -1.43
64 | C27U G81U C85U | -2.15
65 | C27G G83A | -4.12
66 | A28C U31G G50C A52C G74A G80U G86U A121U | ≤ -4.2
67 | C27G A37U U55A U56A G70A G84C C108U | ≤ -4.2
68 | A28G A41G U45A G94C A97U | -3.76
69 | A28G C93U C118A | ≤ -4.2
70 | C27U A52G G92A C96U G133A | ≤ -4.2
71 | C27U A37U C125U | -3.74
72 | C27U G141C | -2.54

Row | Variant | polymerase ribozyme fitness (log ratio)
73 | C27U G68U G74U U77C G80C U104C C116G | ≤ -4.2
74 | A28G A106C G133U A142C | ≤ -4.2
75 | A28C A52G C76G A91U U146G | ≤ -4.2
76 | C27U C63U C76U G81C U101G U146G | -3.39
77 | A28U G50C C54U C95A A107U G143U | ≤ -4.2
78 | C27G G80A G81C | -4.11
79 | C27U C32A A39U C75U A91C A121C G126C | ≤ -4.2
80 | A28U C43A U109G G141C | ≤ -4.2
81 | C27U C57U G94A C95A G143A | ≤ -4.2
82 | C27U A40C U55A C114U U139G | -3.95
83 | C27U C35U A49U C51G U53A G86U U151G | ≤ -4.2
84 | C27U C76G G84U | ≤ -4.2
85 | A28G G42C C43G U56C C85G G92A G124U A150U | ≤ -4.2
86 | C27U C75U | -1.25
87 | A28U A40U A49C G68U U90G C96U A107G A110C | ≤ -4.2
88 | C27U A49G | -2.49
89 | C27U U33C A73G C85U | -0.859
90 | A28C U134A | ≤ -4.2
91 | A28G C57A U61A C76A G88A C93U U102G | ≤ -4.2
92 | C27G U55A A73G U77A C87A A142U | ≤ -4.2
93 | C27U A97U C116U A120C | -3.06
94 | A28U C79A C87G C96G | ≤ -4.2
95 | C27G C32G C36G A73G C93G U135A | -4.18
96 | A28G A39U U53A G71A C93A | ≤ -4.2

Row | Variant | polymerase ribozyme fitness (log ratio)
97 | A28U G70U G83C C131U | ≤ -4.2
98 | A28G A29U A89C G141C | ≤ -4.2
99 | A28C U45A G88A C96A G100A G143A | ≤ -4.2
100 | C27G A29C C87G A121U | ≤ -4.2
101 | A28C A52G G88C A89G U101C C105G | ≤ -4.2
102 | C27G A37U A64C G88C A91C A120G A122U U148G | -4.09
103 | C27U A41C G81U C96A | -2.31
104 | A28U C36G C85G G94A C131G | ≤ -4.2
105 | A28U A29G A40G C85G U90G U134G | ≤ -4.2
106 | C27G G84A G136U | ≤ -4.2
107 | C27U A41C C95U C125U | -2.83
108 | C27A G58A G84A | ≤ -4.2
109 | C27U U53A C85G | -3.88
110 | C27G G58C G86A C105A U144A | ≤ -4.2
111 | A28U A47C C63G G86C C129A | ≤ -4.2
112 | C27G C35G A64U A73G C79A C85G A91U | ≤ -4.2
113 | C27U U55A | -0.901
114 | C27U A37C G59U G92C G117C | -3.65
115 | C27G G62A A64G A73C G88U C99U A107U G124A U130C U148A | ≤ -4.2
116 | C27U A49C G88A U111G | ≤ -4.2
117 | C27U A30G A52C | ≤ -4.2
118 | C27G A39G C93G G112A C129G | ≤ -4.2
119 | C27U A39U A73G C79U C93A | ≤ -4.2
120 | C27G G59U A60C A91U C105U U145C | ≤ -4.2

Row | Variant | polymerase ribozyme fitness (log ratio)
121 | A28C A41U C43U G46C C85A U130G U135C | ≤ -4.2
122 | A28C C32G C63U | ≤ -4.2
123 | A28U G83A C116U U145A | ≤ -4.2
124 | A28U A147C U151C G152C | ≤ -4.2
125 | A28G G88U G92A A98G G133U U144A | ≤ -4.2
126 | A28C C57U U82C C85G U111G A137U | ≤ -4.2
127 | C27U G48A C69A C96A A121G | ≤ -4.2
128 | C27G C85A U90G | ≤ -4.2
129 | A28G C32U G50A C85A | ≤ -4.2
130 | C27A U101G | -3.63
131 | A28C U33G G50A C95A U134A | ≤ -4.2
132 | A28U C85A | -4.11
133 | C27U U45A G71A C75A A89U C118A | ≤ -4.2
134 | A28U C87G U127A G133C U139A | -4.15
135 | A28U C79G | ≤ -4.2
136 | C27A U56A | -3.7
137 | A28C G84A C87G C96G A121U | ≤ -4.2
138 | C27U U55A G68U C85G | ≤ -4.2
139 | A28U A39U | ≤ -4.2
140 | A28C A30U C35G C87A C105U | -3.84
141 | C27G C51U C54A U78A G94C | ≤ -4.2
142 | C27U C87U A142U | -3.03
143 | C27U U61G U82G A89U A91G G100A A113U G140U | ≤ -4.2
144 | C27U U44G U56A G58C U61A G86U U135C | ≤ -4.2

Row | Variant | polymerase ribozyme fitness (log ratio)
145 | A28U C87A C131G | ≤ -4.2
146 | A28G A49C C76U G94U A150G | ≤ -4.2
147 | A28G A29U | -3.79
148 | C27A U53A A119C | ≤ -4.2
149 | C27U A64G C75G G86A C105U | -4.19
150 | A28C C57A A66U G71A C87A U102G A138C | ≤ -4.2
151 | C27A U55A C76U A98G | ≤ -4.2
152 | C27G C36G C85U | ≤ -4.2
153 | A28U A29U G74C C79G A89C C118A A120U A122G C125G | ≤ -4.2
154 | C27G C75G C93A C103G U134A | ≤ -4.2
155 | C27U A47G C93A | -4.19
156 | A28G G94C G100U U134G | ≤ -4.2
157 | C27U C51U G83A | -2.56
158 | A28G A41C G42U A66G C96G G133U U144G | -4.13
159 | C27U C51U U53A U101G | -3.98
160 | A28U G42U G59C A64C U78C C87A | ≤ -4.2
161 | C27G U45G | -3.87
162 | C27G C35U G74U C118U U130A A137U | ≤ -4.2
163 | A28U C87U A106U C108U A119C U148C | ≤ -4.2
164 | C27G C85G G88A G100C U148G | ≤ -4.2
165 | C27U C32A G46U A47C U53A C87G | ≤ -4.2
166 | A28G U53A G84U G140A | ≤ -4.2
167 | C27U G65C A66C A73U C93A C108G C129G | -3.81
